Molecular target: S2H14 (variable region fused with the constant region of IgG1)
Assay: SPR

## SARS-CoV-2 receptor binding domain (RBD), His-tagged (from UniProt P0DTC2 319-541) (domain or fragment)
  Kd: 4.12 nM

From paper PMC8142884
